Experiment [1] concerns the target T1, Aβ(1-40) (human).
T1 construct: Peptide as coated on ELISA plates; its state of aggregation is not specified; also called Aβ-1-40 peptide; Beta-Amyloid 1-40
In words: ELISA, peptide coated on plate.

A further experiment addresses T2, Aβ(1-42) (human).
T2 construct: its state of aggregation is not specified; also called Beta-Amyloid 1-42; Aβ42
Briefly: ELISA, varying peptide amounts, 7E7 at 1:1,000 (FIG. 11). Background: ELISA stands for enzyme-linked immunosorbent assay.

The target of experiment [2] is T3, Beta-Amyloid 1-42 monomer (human).
T3 construct: also called Beta-Amyloid Monomer; Aβ monomer (1-42)
T3 sequence (peptide, as listed by the source): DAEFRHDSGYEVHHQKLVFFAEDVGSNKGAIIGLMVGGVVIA
In words: western blot, 7E7 as primary antibody (FIG. 20). As to the method: (§1) Western blots were performed to determine the extent of 7E7 binding to human Beta-Amyloid, specifically to determine if the antibody binds to Aβ aggregates, Aβ monomer, or both. This procedure applies to any Aβ peptide or peptide fragment which is composed of up to and including 40 or 42 amino acids. Before beginning the assay the vials of Aβ to be used were treated with 1,1,1,3,3,3-Hexafluoro-2-propanol (Aldrich Chemistry #105228-100G) (also known as HFIP) at a rate of 150 μL HFIP per 0.5 mg peptide). Once the HFIP was added to the lyophilized pellet the vials were sonicated for exactly one minute, or until the solution was clear. Once the dissolved peptide had taken on a clear appearance, the HFIP was gently evaporated out of each vial by passing Argon gas directly into the vial with the rubber stopper open just enough to allow the gasses and fumes to escape. When the inside of the vials was free of any remaining liquid, the remaining peptide is dissolved with 1% Ammonium Hydroxide at a rate which yields a peptide concentration of 1 mg/mL. 10 μL of this solution was mixed with 90μL of Milli-Q water, and from that 100 μL mixture 20 μL was added to 50 μL XT Sample Buffer (Bio-Rad #161-0791) and 130μL Milli-Q water for a final sample volume of 200 μL. No 2-Mercaptoethanol was added, and the samples were not heated. […] Instead the mixture was gently mixed by using a pipette. […]
In general terms: In western blotting, separated proteins are transferred to a membrane and probed.

Experiment [3] concerns the target T4, Beta-Amyloid 1-40 monomer (human).
T4 construct: also called Beta-Amyloid Monomer; Aβ monomer (1-40)
In words: western blot, 7E7 as primary antibody (FIG. 20). The procedure: as §1

Experiment [4] has as its target T1, Aβ(1-40). Briefly: ELISA; reacts best with peptide that has not crossed through the isoelectric point.

T1 sequence (peptide, as listed by the source): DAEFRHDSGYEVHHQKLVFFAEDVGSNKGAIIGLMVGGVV

B1: monoclonal antibody 7E7 (antibody, V domains shown)
VH: EVKLVESGGGLVQPGSSQRLSCATSGFTFTDYYMSWVRQPPGKALEWLGFIRNKTKRYTTEYSASVKGRFTISRDNSQSILYLQMNTLRAEDSATYYCARDDPYARFAYWGQGTLVTVSA
VL: DVVMTQTPLSLPVSLGDQASISCRSGQSLVHRNGNTYLHWYLQKPGQSPKLLIYKVSNRFSGVPDRFSGSGTGTDFTLKISRVEAEDLGVYFCSQSTHVPFTFGSGTKLEIK
notes: Hybridoma monoclonal antibody raised against 1-42 rubredoxin fusion, detected with goat anti-mouse IgG (H+L); also called mAb 7E7; Beta Amyloid 7E7
B1: the binding result (in the experiment with Aβ(1-40) [1]; with Aβ(1-42); in experiment [2]; in experiment [3]) was “binds” in each case.

B2: monoclonal antibody 6C2 (antibody, V domains shown)
VH: EVQLQQSGPELVKPGASVKISCKASGYSFTGYFLSWVKQSHGRSLEWIGRINPYNGHTFYNQKFKDKATLTVDKSSTTAHMELLSLTSEDSAVYYCAGSDSWGQGTTLTVSS
VL: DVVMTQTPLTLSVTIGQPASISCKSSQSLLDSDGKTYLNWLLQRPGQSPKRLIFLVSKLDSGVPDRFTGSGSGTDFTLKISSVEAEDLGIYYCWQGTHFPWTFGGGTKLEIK
notes: Hybridoma monoclonal antibody; also called mAb 6C2; Beta Amyloid 6C2
As for B2, the binding result in the experiment with Aβ(1-40) [4] is recorded as “binds”.

For the origin of these results see patent US20180051072A1 (RPEPTIDE, published 2018).
